These results are taken from paper PMC3092513 (Enzyme Research, 2011).

Substrate in series [1]: O=C(O)C(=O)C[C@@H](O)[C@H](O)[C@H](O)COP(=O)(O)O
Put plainly: purified protein. The format is biochemical, Escherichia coli. To be noted: 25 °C, pH 6.8.

Substrate in series [2]: O=C(O)C(=O)C[C@@H](O)[C@H](O)[C@H](O)COP(=O)(O)O
Put plainly: purified protein. The class given is biochemical, Pyrococcus furiosus. To be noted: 60 °C, pH 6.8, 50 mM BTP, 10 μM EDTA, 100 μM ZnCl2, 29 μM NAD+, 56 nM enzyme.

Series [3] concerns the molecule itself. Kind of series: SEC; Superdex S200 HR 10/300; 10 mM BTP, 10 μM EDTA, 50 mM KCl, pH 6.8; partially purified protein at ≤10 mg/mL; mass estimated from a standard curve of five proteins; dimer of the enzyme.

B1: EcoDHQS (Escherichia coli K-12) (protein)
chain: MERIVVTLGERSYPITIASGLFNEPASFLPLKSGEQVMLVTNETLAPLYLDKVRGVLEQAGVNVDSVILPDGEQYKSLAVLDTVFTALLQKPHGRDTTLVALGGGVVGDLTGFAAASYQRGVRFIQVPTTLLSQVDSSVGGKTAVNHPLGKNMIGAFYQPASVVVDLDCLKTLPPRELASGLAEVIKYGIILDGAFFNWLEENLDALLRLDGPAMAYCIRRCCELKAEVVAADERETGLRALLNLGHTFGHAIEAEMGYGNWLHGEAVAAGMVMAARTSERLGQFSSAETQRIITLLKRAGLPVNGPREMSAQAYLPHMLRDKKVLAGEMRLILPLAIGKSEVRSGVSHELVLNAIADCQSA
notes: recombinant, overexpressed in E. coli RB791 from plasmid of J. R. Coggins; ammonium sulfate and anion exchange; no tag mentioned
The term Km denotes the substrate concentration at which the rate is half of its maximum. A word on the kcat: it is the maximal rate divided by the concentration of active sites. By kcat/Km is commonly meant the turnover number divided by the Michaelis constant. B1: in series [1], the Km came out at 6.3 ± 0.2 µM, the kcat was 16 ± 0.2 s⁻¹ and the kcat/Km was 2.5e+06 M⁻¹ s⁻¹.

B2: Pyrococcus furiosus dehydroquinate synthase (enzyme, UniProt Q8U0A8 1-335, looked up)
chain: MEGIIFGDLSTLPDLLSSLSPYKVVVLTNTTLKELWLEEVLTWLKEFKPQTIVVPDGEKYKDLDTVRYIWEKLLEMGFTRRSLLIGLGGGVITDIAGFVASTYMRGTYLGLVPTTLLAQVDAAIGGKTGINFYGKNIIGTFYLPKFVLICRDFLKTLPMVEILNGLAEVVKYGILDKEVYNAIKTMNSPREIVEREDIIKKSVAVKLRIVEEDLKENGKRRVLNLGHTVGHAIEKISDYKIKHGFAVSMGLVVEAKIGEILYGFDSGKVVEILTKFGLPVKIPFDPYTTLQAMKIDKKAWYGKIVIVVPVEIGKANIEEVDEKIILQALEEAKNA
What is called stoichiometry N is the number of molecules, sites or subunits per partner or assembly. Regarding B2, in series [2], the Michaelis constant (Km) stood at 3.7 ± 0.2 µM, the kcat was 3 ± 0.1 s⁻¹ and the kcat/Km came to 800000 M⁻¹ s⁻¹. In series [3], the “stoichiometry N” value is 2.
